Experiments:
[1] = biological target: hamster IgG (pooled hamster plasma)
[2] = biological target: total IgG in human serum samples and pooled human plasma
[3] = biological target: rhesus macaque IgG (NHP plasma)

B1: immunoglobulin G-degrading enzyme of Streptococcus pyogenes (IdeS) (protein)
chain: DSFSANQEIRYSEVTPYHVTSVWTKGVTPPANFTQGEDVFHAPYVANQGWYDITKTFNGKDDLLCGAATAGNMLHWWFDQNKDQIKRYLEEHPEKQKINFNGEQMFDVKEAIDTKNHQLDSKLFEYFKEKAFPYLSTKHLGVFPDHVIDMFINGYRLSLTNHGPTPVKEGSKDPRGGIFDAVFTRGDQSKLLTSRHDFKEKNLKEISDLIKKELTEGKALGLSHTYANVRINHVINLWGADFDSNGNLKAIYVTDSDSNASIGMKKYFVGVNSAGKVAISAKEIKEDNIGAQVLGLFTLSTGQDSWNQTN
- cleavage of IgG, non-reducing SDS-PAGE and Coomassie Blue staining [1]: IdeS was effective to cleave the IgG in the pooled hamster plasma and pooled human plasma in vitro
- cleavage of IgG, non-reducing SDS-PAGE and Coomassie Blue staining [2]: IdeS was effective to cleave the IgG in the pooled hamster plasma and pooled human plasma in vitro
- cleavage of IgG, non-reducing SDS-PAGE and Coomassie stain [2]: the lowest dose of IdeS cleaved all total IgG (~150 kD) to liberate the Fc fragment (~25 kD)
- cleavage of IgG, non-reducing SDS-PAGE and Coomassie stain [3]: In the NHP samples, IgG was similarly cleaved in all NAb titer groups

From US20210228738A1
